assay: soluble on expression in E. coli; label from the status in PepcDB or PDB records

Row | Sequence | soluble on expression in E. coli
1 | VTDILREIGMIARALDSISNIEFKELSLTRGQYLYLVRVCENPGIIQEKIAELIKVDRTTAARAIKRLEEQGFIYRQEDASNKKIKRIYATEKGKNVYPIIVRENQHSNQVALQGLSEVEISQLADYLVRMRKNVSEDWEFVKKGNTRNY | soluble
2 | MVNLANVLTNATAATLSAWSNTVPLETYFHFDEASGFGDYYLNVSVIWMNETLYETRIVPAIINVREWLDHMEANDPSPSVTNPYETSGYYAFSTVVPVLMGNMKVA | not soluble
3 | METNLFKLSLDDVETPKGSMLDLKISQSKIALPKNTVGGTILRSDLLANFLTEGNFRASVDLQRTHRIKGMIKMVATVGIPENTGIALACAMNSSIRGRASSDIYTICSQDCELWNPACTKAMTMSFNPNPCSDAWSLEFLKRTGFHCDIICVTGWTATPMQDVQVTIDWFISSQECVPRTYCVLNPQNPFVLNRWMGKLTFPQGTSRSVKRMPLSIGGGAGAKSAILMNMPNAVLSMWRYFVGDLVFEVSKMTSPYIKCTVSFFIAFGNLADDTINFEAFPHKLVQFGEIQEKVVLKFSQEEFLTAWSTQVRPATTLLADGCPYLYAMVHDSSVSTIPGDFVIGVKLTIIENMCAYGLNPGISGSRLLGTIPQ | soluble
4 | MSEQQPNLRERRRSETRRLVQAHAVRLFTDHGYDAVTVADVAEAAGVSAMTVYRHFPTKEDLVLIDQPAQLIAEHVAASSAAQPLVRRVGSALIDAATNWTGGNGDEQAANERFLLDCLRLMVSTPALRARHLDSQYALQQAIVDALGDDATGPDAAFRAQAATSACIAAMHTALTRWVEDDGHTKLPDLIARALTASFGDDAVATRRKG | not soluble
5 | LTKRVQEAQAMTEGERRKLSSVLAYMTDGVIATDRRGKVILINTPAEKMLRVKHESANGRSIIDVLDIGDTYQFEDLMEVDGSLTMDRSTLDKPYVLRANFSVIQRETGFNNGVIAVLHDIT | not soluble
6 | MQTSFCVLVSIIERMPTWNDIKVRNPQHSHNYAKRWENLEAEGNDINGEARLIDALVQRGSKILDAGCGQGRVGGYLSARGHIVTGIDIDDYLISEAEKKFPSATWHVGDLGSESIPDQGFDIAVCAGNVITFIEPDKQEAALAHIFEALRPNGRCIIGFGAGRGYVFPQFFEDARNVGFVIENNFESWGLNPLTNRSQFLVAFLRKPELEHHHHHH | not soluble
7 | GHMASMDISGGNTSRQPQKKSNQNIQVYVRVRPLNSRERCIRSAEVVDVVGPREVVTRHTLDSKLTKKFTFDRSFGPESKQCDVYSVVVSPLIEEVLNGYNCTVFAYGQTGTGKTHTMVGNETAELKSSWEDDSDIGIIPRALSHLFDELRMMEVEYTMRISYLELYNEELCDLLSTDDTTKIRIFDDSTKKGSVIIQGLEEIPVHSKDDVYKLLEKGKERRKTATTLMNAQSSRSHTVFSIVVHIRENGIEGEDMLKIGKLNLVDLAGSENVSKAGNEKGIRVRETVNINQSLLTLGRVITALVDRAPHVPYRESKLTRLLQESLGGRTKTSIIATISPGHKDIEETLSTLEYAHRAKNIQNKPEVNQKLTK | soluble
8 | MRSAIAAPILFLLVSFFVQECESVGFAPELYCGLENCYDVLEVNREEFDKQKLAKAYRALARKHHPDRVKNKEEKLLAEERFRVIATAYETLKDDEAKTNYDYYLDHPDQRFYNYYQYYRLRAAPKVDL | not soluble
9 | GMTAVFRNTVLVRFKHCDAAGIVFYPRYFEMLNDFIEDWFAQALDWPFDAMHGAGQAGVPTADLHCRFVAPSRLGETLTRELRVVKLGQSSFTVQVRFMGPDSGLRLEVTQRLVCVDTDKIAPRPLPDPVRQAMATYVDETLAATGSPGL | soluble
10 | APIKGVTFGEDTVWEVQGYKNVRITFELDERVDKVLNEKCSVYTVESGTEVTEFACVVAEAVVKTLQPVSDLLTNMGIDLDEWSVATFYLFDDAGEENFSSRMYCSFYPPDE | soluble
11 | MGSDKIHHHHHHMKLLILGNHTCGNRGDSAILRGLLDAINILNPHTEVDVMSRYPVSSSWLLNRPVMGDPLFLQMTQHNSAAGVVGRIKKVLRRRYQHQVLLSRVTDTGKLRNIAIAQGFTDFVRLLSGYDAIIQVGGSFFVDLYGVPQFEHALCTFMAKKPLFMIGHSVGPFQDEQFNQLANYVFGHCDALILRESVSLDLMKRRNITTAKVEHGVDTAWLVDHHTEDFTASYAVQHWLDVAAQQKTVAITLRELAPFDKRLGTTQQAYEKAFAGVVNRILDEGYQVIALSTCTGIDSYNKDDRMVALNLRQHISDPARYHVVMDELNDLEMGKILGACELTVGTRLHSAIISMNFATPAIAINYEHKSAGIMQQLGLPEMAIDIRHLLDGSLQAMVADTLGQLPVLNARFNEAVSRERQTGMQMVQSVLERIGEVK | not soluble
12 | TKEGMLHYKAGTSYLGKEHWKTCFVVLSNGILYQYPDRTDVIPLLSVNMGGEQCGGCRRANTTDRPHAFQVILSDRPCLELSAESEAEMAEWMQHLCQAVSKGVIPQGVAPS | soluble
13 | MGSDKIHHHHHHCSTDFLDRNPLDKPSNEAFWRTEKDAMAAATGCYNGWFSMDEVIYADCASDNAYNPFTWEGWAVQAAGTATPTDPGYSYMGYGNMVRYNNFLENIHRPEMNEDLRKRLIAEVRFLRAWDYFQKVAHYGDVPLVTSVLEIKNANLPRTEKAKVVEFILKELKEIAPQLPESYSGSDVGRITRGAALTLKARLELFEHQYDDCMATCSEVMGLGYELFLDYKGLFKIANENNSEVILDVQYVESLYGNWVLGVLPPASVGGWCSINPTQSLVDAFECEDGKTIEESEVYDPKEPYLHRDPRLAVTVLAPGNLYEGKRYDPIDVKDPNGDYYAPYGRSKTGYLVRKYVDDLSDYADMWDCGMNAIVMRYAEVLLMYAECKIELNQIDNSVYDILDDIRTRAKMPVVDRTRYTGQEKLRELLRRERRVELAMEGLRWFDICRWKIGEQVLNGKVYGCLLGTVDPVTGALSLTNERIFVENRKFDPAKHYLWPIPQTVIDATPAIVQNPHY | not soluble
14 | DYLRQVFPHYKVQKITLNAGFTCPNRDGLKGWGGCTYCNNQTFSPAFAMKDRSVSEQLRDGIAFFARKYPHMKYLAYFQAYTNTYGEQAEIIRKYEEALNYYDVVGIIIGTRPDCMPDSLLSYLKDLSERVFVLVEYGVESTLDATLRRVNRGHLWSDSMAAIERTAKTGLPIGVHLILGLPGESREDILRHADKISALPVTTLKLHQLQIIRGTAMAKEYAESPSD | not soluble
15 | SNAMAKNKLLRMDNVSIVVESLDNAISFFEEIGLNLEGRANVEGEWAGRVTGLGSQCVEIAMMVTPDGHSRIELSRFLTPPTIADHRTAPVNALGYLRVMFTVEDIDEMVSRLTKHGAELVGEVVQYENSYRLCYIRGVEGILIGLAEELGNK | soluble
16 | MSLKRFIPAWYSRNRWWESTSRPFYLKKQYTDFDDMISLMTMHSSNNVDYQLIVLSFSPYLRTFLHRYDLYESHYWSVFDEIQGIGHQTPQAIDYRDLSWPEGTEFIFTPFQIQAITGDNTFSKIHFSQEGYLMWVEDYKYSTIQRRFVFDDRGFISAVRTYTPDGDNNKKHYFSKDGEEIFVEDLNVNTVTINKNFQSKFKKVTYSSMAELIEEKFQSYVERELNEDDSVIVASDERHNSMMARTIDAPSLCFSIFTERNKVVTQDLYDSISRAYYCLVDTQANQNMIEHYAGLNMNNFNLLRVTPFDAQSLPNQSSQLYDTYIGLWIDGLDEIEIREIVNSLFQYIQHKDGYKLKILTKSRDNLTENLIDEVAHLNDLYHQEKKEISDVIEDVIQNKKETIIDIETVPFEEDLVSVISKLRVVVDLSLEPKLFLQICCIGAGIPQINKKRTDYVKHMHNGYIIDDISQTVESLDYFLAHLKNWNYSYAYSMRLTDDFSSINIIHQINQLFKGDVSSGTEGHHHHHH | soluble
17 | MAHHHHHHMGCKSSAEAKPSETRSPSARLSRNSVTTPPDRMDTAHRLHPAAREEVDLDPENVAGAEHISPSVVTARSSSRVAAVTLHGICGYTHNGVPAYSNGTSNTWPWMKNFCEGIFMGYQWQCVEFARRWLWVTHRLLLPKRSCAYCFSSCTYAYRLKKDSSLISQRARAAMHKAAAETGAGSPSSSKEVNAATEARHLGPCTSRDTWEKVPAKFVKQGSLVPPVADSLIVYPISWGSPWGHIGVITAVDLDRHRVYVADQNRYFHDWNG | soluble
18 | MLLFLTIILILVGGCTPKTKEVVLKNRNYVVIKEGKPALSEEDIIKLSRSLYVNKVNRPEVLRALKSLLTKRESLKYAFYRMKLYENIIVPILRSYGLPEEFKYLPIVESMYNPFAVSRSGAAGIWQLMPQTARRYGLIVRKDYDERFDVVKSTHAAAKYLRDLLEEFKNLELVLAAYNCGENCIRRNVNYNFWKERRKLPKETQNYVPLFLATLLIAQNPEYYGIHLYEPSREIAIVKVGIPMSVEDFLIMYSMNESRFRDLNPHIRGRKIPKNANVYVEERKLVKGEYLLRARGREE | not soluble
19 | MGSDKIHHHHHHMTSKNQSPLASDHPLAMPDTEISAREVFGIDIDMLVPAFSVGSEHVPDVDPAYRFDPDTTKAILAGFAFNRRVMVQGYHGTGKSTHIEQVAARLNWPCIRVNLDSHVSRIDLIGKDAIVVKDGKQITEFREGMLPWALQHPCALVFDEYDAGRPDVMFVIQRVLEVEGRLTLLDQNRVIRPHAAFRLFATANTVGLGDTTGLYHGTQQINQGQMDRWNIVATLNYLAHDDECSIVVAKLKDYDTPEGRDLVSKMVMLADLTRQGFMNGDISTVMSPRTVITWAENTRIFGDHSYGFRVTFLNKCDEVERPILAEYYQRCFGTDLPDGPARMLA | not soluble
20 | MRGSHHHHHHGMASMTGGQQMGRDLYDDDDKDHPFTMADQAPFDTDVNTLTRFVMEEGRKARGTGELTQLLNSLCTAVKAISSAVRKAGIAHLYGIAGSTNVTGDQVKKLDVLSNDLVMNMLKSSFATCVLVSEEDKHAIIVEPEKRGKYVVCFDPLDGSSNIDCLVSVGTIFGIYRKKSTDEPSEKDALQPGRNLVAAGYALYGSATMLVLAMDCGVNCFMLDPAIGEFILVDKDVKIKKKGKIYSLNEGYAKDFDPAVTEYIQRKKFPPDNSAPYGARYVGSMVADVHRTLVYGGIFLYPANKKSPNGKLRLLYECNPMAYVMEKAGGMATTGKEAVLDVIPTDIHQRAPVILGSPDDVLEFLKVYEKHSAQ | soluble
21 | MKWRYGAAAGVESRGPHIRVQTVASQVPRGVCWMARVAVVVKVYPDDVSIDPKTLAERIKSKLPSGYEVLAEGEEPIAFGLKALKLVIAMNEDTEGGTEEVEQLLKNIEGVQEVEVENVSRMQ | soluble
22 | MTTGGEDSRRTLSPGTMIVIVGPSGAGKDTLMDYAAAQLSGRPGFHFTRRVITRSCDAGGENHDAVSMHEFNQLEDAGAFAVSWQAHGLKYGIPAAVYRHLEAGDVVIANGSRSALPHFGTAFSRLKVVNIVARPDVLARRLEQRGRESRDDILRRLERSSLAVAGDFDVTTVDNSGAIEDAGKTIMQVLQQSAGSSQP | not soluble
23 | MGSDKIHHHHHHMKEQYKIIVLSDELSKEKIQNTLDKNKCKTIVHLVDVSAIVQIENSFQYIVIWRMDAEKITNELINRGVQSTKIINLTKYMYEWRNKLISIYQINPDLMSLYISMKKAKGDPTYELFATGLSYPHCGISTELLSKKSIKLTLPSQDLYYDYLIASQLLSNNHSFQYCLIGIAYFSFYFDMSLSSESYRIHKVYYPLFQDGHHTVVHSHLPTDGFSHLDTPKPLFSIFNMHFEYILLDELKNESLILPWIHAEWNTTPPHIPFEEHGKIRAASHAKLSYPHTLVENKTIFKKYLELLLKHDIKPLIVVFPVTSHYFNCSSKKLKEDFYNVIKDFQSQYSFQIIDLFDSPLFCDDDFYDSDHMNKKGANKMSVLLNMFIQERKV | not soluble

— the DeepSol protein solubility set
